Reference: FireProtDB (doi:10.1021/bi972394l)
Where “and” joins values, the source holds several entries; their conditions need not be identical. Equal values may be shown once.

B1: Superoxide dismutase [Mn], mitochondrial, P04179 (parent)
chain: MLSRAVCGTSRQLAPVLGYLGSRQKHSLPDLPYDYGALEPHINAQIMQLHHSKHHAAYVNNLNVTEEKYQEALAKGDVTAQIALQPALKFNGGGHINHSIFWTNLSPNGGGEPKGELLEAIKRDFGSFDKFKEKLTAASVGVQGSGWGWLGFNKERGHLQIAACPNQDPLQGTTGLIPLLGIDVWEHAYYLQYKNVRPDYLKAIWNVINWENVTERYMACKK

Variants of: B1
Settings: Homo sapiens; pH 7.8; 88.9 °C; Thermal; DSC; potassium phosphate 2 mM; transition: 2; reversible: Yes; structure 1N0J; whole UniProt chain shown

Variant	ddG of mutation (higher = less stable) [kcal/mol]
Y58F	-3.1

Same assay, conditions: Homo sapiens; pH 7.8; Thermal; DSC; potassium phosphate 2 mM; transition: 2; reversible: Yes; structure 1N0J; whole UniProt chain shown

Variant	unfolding enthalpy (calorimetric)
Y58F	351 kcal/mol and 197 kcal/mol
